Data taken from US20250129135A1, “Multi-Agonist and Use Thereof” (priority 2021, published 2025).
Starred links: 1 amine or outer side, 2 acyl side, 3 side chain; linkers in the order of their positions; H or OH if unused. Non-standard residues stand in square brackets, D forms with d. Groups on a side chain read outwards from the residue. No end group written: not given here. *: point of attachment. C20 diacid = O=C(O)CCCCCCCCCCCCCCCCCCC(=O)*; γGlu = O=C(O)[C@H](CCC(=O)[*:2])N[*:1]; αMeF = C[C@](N)(Cc1ccccc1)C(=O)O; AEEA = NCCOCCOCC(=O)O; Ac3c = NC1(C(=O)O)CC1; Aib = CC(C)(N)C(=O)O

T1: human GIP receptor (human, UniProt P48546 22-466)
T1 sequence (looked up): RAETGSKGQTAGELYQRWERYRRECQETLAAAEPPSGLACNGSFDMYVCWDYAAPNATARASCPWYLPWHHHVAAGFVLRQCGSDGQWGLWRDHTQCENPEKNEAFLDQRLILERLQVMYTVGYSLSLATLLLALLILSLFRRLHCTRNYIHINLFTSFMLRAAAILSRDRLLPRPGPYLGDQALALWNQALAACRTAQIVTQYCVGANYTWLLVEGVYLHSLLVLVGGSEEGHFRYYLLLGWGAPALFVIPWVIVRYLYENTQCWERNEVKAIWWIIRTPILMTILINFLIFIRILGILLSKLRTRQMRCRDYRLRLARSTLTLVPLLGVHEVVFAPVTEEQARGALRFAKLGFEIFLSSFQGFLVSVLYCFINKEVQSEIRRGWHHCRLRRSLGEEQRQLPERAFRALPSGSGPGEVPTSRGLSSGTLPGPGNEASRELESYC

B1: Compound 23 (peptide)
peptide: YXQGTXTSDYSIXLDKKAQXAFIEYLLETGPSSGQPPPS
modifications: Aib at 2; αMeF(2F) at 6; αMeL at 13; Lys 17 side chain AEEAc-AEEAc-γGlu-CO(CH2)18COOH; Aib at 20; C-terminal amide (NH2)
B2: Compound 38 (peptide)
peptide: YXQGTXTSDYSIXLDKKAQXAFIEFLLETGPSSXHPPPS
modifications: Aib at 2; αMeF(2F) at 6; αMeL at 13; Lys 17 side chain AEEAc-AEEAc-γGlu-CO(CH2)18COOH; Aib at 20; Aib at 34; C-terminal amide (NH2)
B3: Compound 1 (peptide)
peptide: YXQGTXTSDYSIXLDKKAQXAFIEYLLETGPSSGAPPXS
modifications: Aib at 2; αMeF at 6; αMeL at 13; Lys 17 side chain AEEAc-AEEAc-γGlu-CO(CH2)18COOH; Aib at 20; Ac3c at 38; C-terminal amide (NH2)
B4: Compound 25 (peptide)
peptide: YXQGTXTSDYSIXLDKKAQXAFIEFLLEGRPSSXHPPPS
modifications: Aib at 2; αMeF(2F) at 6; αMeL at 13; Lys 17 side chain AEEAc-AEEAc-γGlu-CO(CH2)18COOH; Aib at 20; Aib at 34; C-terminal amide (NH2)
B5: Compound 28 (peptide)
peptide: Y[Aib]QGT[αMeF]TSDYSIXLDKK([AEEA-AEEA-γGlu-C20 diacid])AQ[Aib]AFIEFLLES[Aib]PSSGAPP[Ac3c]S-NH2
modifications: not fully specified (residue 13); printed as Y-Aib-QGT-αMeF-TSDYSI-αMeF-LDKK(AEEAc-AEEAc-γGlu-CO(CH2)18COOH)AQ-Aib-AFIEFLLES-Aib-PSSGAPP-Ac3c-S-NH2
B6: Compound 15 (peptide)
peptide: YXQGTXTSDYSIFLDKKAQXAFIEFLLESHPSSGAPPPS
modifications: Aib at 2; αMeF at 6; Lys 17 side chain AEEAc-AEEAc-γGlu-CO(CH2)18COOH; Aib at 20; C-terminal amide (NH2)
B7: Compound 17 (peptide)
peptide: YXQGTXTSDYSIFLDKKAQXAFIEYLLETGPSSGAPPPS
modifications: Aib at 2; αMeF(2F) at 6; Lys 17 side chain AEEAc-AEEAc-γGlu-CO(CH2)18COOH; Aib at 20; C-terminal amide (NH2)
B8: Compound 29 (peptide)
peptide: YXQGTXTSDYSIFLDKKAQXAFIEYLLESXPSSGAPPXS
modifications: Aib at 2; αMeF at 6; Lys 17 side chain AEEAc-AEEAc-γGlu-CO(CH2)18COOH; Aib at 20; Aib at 30; Ac3c at 38; C-terminal amide (NH2)
B9: Compound 16 (peptide)
peptide: YXQGTXTSDYSIFLDKKAQXAFIEFLLEXHPSSGAPPPS
modifications: Aib at 2; αMeF at 6; Lys 17 side chain AEEAc-AEEAc-γGlu-CO(CH2)18COOH; Aib at 20; Aib at 29; C-terminal amide (NH2)
B10: Compound 20 (peptide)
peptide: YXQGTXTSDYSIXLDKKAQXAFIEFLLEXHPSSGAPPPS
modifications: Aib at 2; αMeF(2F) at 6; αMeL at 13; Lys 17 side chain AEEAc-AEEAc-γGlu-CO(CH2)18COOH; Aib at 20; Aib at 29; C-terminal amide (NH2)
B11: Compound 21 (peptide)
peptide: YXQGTXTSDYSIFLDKKAQXAFIEFLLEGGPSSGQPPPS
modifications: Aib at 2; αMeF(2F) at 6; Lys 17 side chain AEEAc-AEEAc-γGlu-CO(CH2)18COOH; Aib at 20; C-terminal amide (NH2)
B12: Compound 2 (peptide)
peptide: YXQGTXTSDYSIXLDKKAQXAFIEYLLETHPSSGAPPXS
modifications: Aib at 2; αMeF at 6; αMeL at 13; Lys 17 side chain AEEAc-AEEAc-γGlu-CO(CH2)18COOH; Aib at 20; Ac3c at 38; C-terminal amide (NH2)
B13: Compound 19 (peptide)
peptide: YXQGTXTSDYSIXLDKKAQXAFIEFLLETGPSSGAPPPS
modifications: Aib at 2; αMeF(2F) at 6; αMeL at 13; Lys 17 side chain AEEAc-AEEAc-γGlu-CO(CH2)18COOH; Aib at 20; C-terminal amide (NH2)
B14: Compound 26 (peptide)
peptide: YXQGTXTSDYSIXLDKKAQXAFIEFLLESHPSSGAPPPS
modifications: Aib at 2; αMeF at 6; αMeL at 13; Lys 17 side chain AEEAc-AEEAc-γGlu-CO(CH2)18COOH; Aib at 20; C-terminal amide (NH2)
B15: Compound 22 (peptide)
peptide: YXQGTXTSDYSIXLDKKAQXAFIEFLLEGGPSSGQPPPS
modifications: Aib at 2; αMeF(2F) at 6; αMeL at 13; Lys 17 side chain AEEAc-AEEAc-γGlu-CO(CH2)18COOH; Aib at 20; C-terminal amide (NH2)
B16: Compound 27 (peptide)
peptide: YXQGTXTSDYSIXLDKKAQXAFIEYLLESHPSSGAPPPS
modifications: Aib at 2; αMeF at 6; αMeF at 13; Lys 17 side chain AEEAc-AEEAc-γGlu-CO(CH2)18COOH; Aib at 20; C-terminal amide (NH2)
B17: Compound 18 (peptide)
peptide: YXQGTXTSDYSIFLDKKAQXAFIEYLLEXHPSSGAPPPS
modifications: Aib at 2; αMeF(2F) at 6; Lys 17 side chain AEEAc-AEEAc-γGlu-CO(CH2)18COOH; Aib at 20; Aib at 29; C-terminal amide (NH2)
B18: Compound 30 (peptide)
peptide: YXQGTXTSDYSIXLDKKAQXAFIEFLLETXPSSGAPPXS
modifications: Aib at 2; αMeF at 6; αMeL at 13; Lys 17 side chain AEEAc-AEEAc-γGlu-CO(CH2)18COOH; Aib at 20; Aib at 30; Ac3c at 38; C-terminal amide (NH2)

Columns and labels:
Test in all cases: cell-based or functional assay
human GLP-1 receptor = human GLP-1 receptor (human, UniProt P43220 24-463)
human GIP receptor = target: T1, human GIP receptor
human GCG receptor = human GCG receptor (human, UniProt P47871 26-477)
human GCG receptor, sequence (P47871 26-477): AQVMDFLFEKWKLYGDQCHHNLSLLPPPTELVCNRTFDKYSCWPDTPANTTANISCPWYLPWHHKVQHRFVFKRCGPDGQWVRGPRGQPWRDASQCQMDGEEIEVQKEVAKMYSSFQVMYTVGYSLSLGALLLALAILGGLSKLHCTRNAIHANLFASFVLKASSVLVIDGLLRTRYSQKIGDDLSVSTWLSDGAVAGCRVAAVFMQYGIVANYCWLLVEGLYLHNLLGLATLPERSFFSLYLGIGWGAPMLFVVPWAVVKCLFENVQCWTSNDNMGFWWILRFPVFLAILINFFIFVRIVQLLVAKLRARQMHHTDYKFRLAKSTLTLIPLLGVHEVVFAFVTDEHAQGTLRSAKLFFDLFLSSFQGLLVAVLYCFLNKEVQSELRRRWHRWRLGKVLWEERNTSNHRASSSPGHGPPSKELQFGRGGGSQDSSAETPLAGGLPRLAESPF

Row | Binder | cAMP EC50, HEK-293 cells stably overexpressing human GLP-1 R (human GLP-1 receptor) [nM] | cAMP Rel. A (%) against human GLP-1 (7-37), human GLP-1 R cells (human GLP-1 receptor) [%] | cAMP EC50, CHO cells stably overexpressing human GIP R (human GIP receptor) [nM] | cAMP Rel. A (%) against human GIP, human GIP R cells (human GIP receptor) [%] | cAMP EC50, HEK-293 cells stably overexpressing human GCG R (human GCG receptor) [nM] | cAMP Rel. A (%) against human GCG, human GCG R cells (human GCG receptor) [%]
1 | B1 | 0.005 | 880 | 0.007 | 2590 | 0.025 | 228
2 | B2 | – | – | 0.013 | – | 0.068 | –
3 | B3 | – | – | 0.015 | 1210 | – | 57.6
4 | B4 | 0.031 | 142 | 0.013 | 1390 | 0.034 | 168
5 | B5 | 0.024 | 183 | 0.011 | 1650 | 0.154 | 37
6 | B6 | 0.023 | 191 | – | 548 | – | 41
7 | B7 | 0.011 | 400 | – | 953 | – | 163
8 | B8 | 0.016 | 275 | 0.309 | 58.6 | 0.069 | 82.6
9 | B9 | 0.02 | 220 | – | 335 | – | 33.9
10 | B10 | 0.01 | 440 | – | 3020 | – | 248
11 | B11 | 0.005 | 880 | 0.008 | 2260 | 0.025 | 228
12 | B12 | 0.026 | 169 | 0.025 | 724 | 0.232 | 24.6
13 | B13 | 0.009 | 489 | 0.008 | 2260 | 0.029 | 197
14 | B14 | 0.022 | 200 | 0.007 | 2590 | – | 43.9
15 | B15 | – | 733 | 0.007 | 2590 | 0.017 | 335
16 | B16 | 0.016 | 275 | 0.023 | 787 | – | 96.6
17 | B17 | 0.012 | 367 | 0.021 | 862 | 0.026 | 219
18 | B18 | 0.02 | 220 | 0.015 | 1210 | 0.173 | 33
